The target of assay [1] is mouse Pih1 PIH domain 1-200 (His-mPih1 1-200) (mouse) (UniProt Q9CQJ2). Briefly: ITC; peptides at 350 μM injected into 30 μM Pih1 (mPIH domain) at 30°C; 20 mM Tris pH 7.5, 5 mM NaCl.
Assay [2] has as its target yeast Hsp90, intact (full-length) dimer (yeast) (UniProt P02829). Briefly: ITC; 600 μM Tah1 injected into 40 μM yeast Hsp90; 10 mM Tris pH 7.5, 5 mM NaCl; 10°C or 30°C (not told which). For orientation: ITC needs no label: the signal is the heat of the interaction.
For assay [3], the target named is pre-assembled full-length yeast Tah1-Pih1 complex (yeast) (UniProt P25638). Briefly: ITC; 301 μM yeast Hsp90 injected into 25 μM yeast Tah1-Pih1 complex; 10 mM Tris pH 7.5, 5 mM NaCl; 10°C or 30°C (not told which).
The target of assay [4] is human Spagh/RPAP3 120-395 (tandem TPR region) (human) (UniProt Q9H6T3). Briefly: ITC; 500 μM yeast Hsp90 injected into 20 μM Spagh/RPAP3 120-395; 10 mM Tris pH 7.5, 5 mM NaCl; 10°C or 30°C (not told which).
Chain of human Spagh/RPAP3 120-395 (tandem TPR region) (human) (Q9H6T3 120-395): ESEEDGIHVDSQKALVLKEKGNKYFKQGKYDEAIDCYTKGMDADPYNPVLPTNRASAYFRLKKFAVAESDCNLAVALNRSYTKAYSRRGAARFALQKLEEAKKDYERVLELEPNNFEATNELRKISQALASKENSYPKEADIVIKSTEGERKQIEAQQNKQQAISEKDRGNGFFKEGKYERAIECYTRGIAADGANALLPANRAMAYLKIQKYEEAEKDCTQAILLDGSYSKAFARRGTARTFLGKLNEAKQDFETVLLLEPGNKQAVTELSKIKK

Chain of mouse Pih1 PIH domain 1-200 (His-mPih1 1-200) (mouse) (Q9CQJ2 1-200): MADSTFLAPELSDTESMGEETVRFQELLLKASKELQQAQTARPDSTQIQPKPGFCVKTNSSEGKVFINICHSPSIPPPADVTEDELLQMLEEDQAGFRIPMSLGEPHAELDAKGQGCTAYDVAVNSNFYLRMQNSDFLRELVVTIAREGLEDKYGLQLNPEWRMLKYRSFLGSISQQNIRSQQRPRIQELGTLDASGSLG

Regarding mouse Tel2 484-496 peptide, pSer 488, the Kd in assay [1] is 15.3 µM. Same read-out and setting: then “mouse Tel2 484-496 peptide, bis-phosphorylated pSer 488 and pSer 492 (QGSDpSELDpSDDEF)”, with 0.17 µM. The same measure, in the same setting: then mouse Tel2 484-496 peptide, pSer 492, with 0.39 µM. Still for that read-out and setting: then mouse Tel2 484-496 peptide, pSer 486, with more than 100 µM. In assay [2], “Tah1 (yeast, full-length) (from UniProt P25638 1-111) (natural protein)” came in with a Kd of 5.9 µM and a stoichiometry N (Tah1 per Hsp90 chain) of 1. On to “yeast Hsp90, intact (full-length) dimer (from UniProt P02829 1-709) (natural protein)”, for which the dissociation constant Kd turned out to be 4 µM in assay [3] and 6.8 µM in assay [4]. Besides, in assay [4] (scale: Hsp90 chains per Spagh/RPAP3), the stoichiometry N is 2. In turn, “mouse Tel2 484-496 peptide, bis-phosphorylated pSer 486 and pSer 488” had a Kd in assay [1] of 37.9 µM.

As a reminder, the Kd is the constant that tells how readily two partners part at equilibrium. The term stoichiometry N denotes a count of units in the complex or per binding partner.

For the origin of these results see PMC4058522, “Structural Basis for Phosphorylation-Dependent Recruitment of Tel2 to Hsp90 by Pih1” (Structure(London, England:1993), 2014).
